The text below walks through data of patent US20100210517A1 (RAPTOR PHARMACEUTICAL, published 2010).

Assay [1] addresses T1, LRP1 CR3-5 (human).
T1 construct: range 852-973; also called L1 CR3-5
Put plainly: solid-phase binding assay, CR protein coated on plate, anti-RAP detection.

Assay [2] has as its target T2, LRP2 CR89 (human, UniProt P98164 1025-1102).
T2 construct: domain: CR89; also called YVWR; L2 CR89; not shown: N-terminal hexahistidine and S-peptide tags of pET30(+)a
The description is as above.

Assay [3] concerns the target T3, VLDLR CR6-8 (human, UniProt P98155 235-358).
T3 construct: range 235-358; also called V CR6-8; not shown: N-terminal hexahistidine and S-peptide tags of pET30(+)a
The assay is described as above.

Assay [4] deals with T4, LRP2 CR89 R1088D (human, UniProt P98164 1022-1105).
T4 construct: also called YVWD
Put plainly: solid-phase assay on coated CR protein, anti-RAP detection, A450. As for the experimental part:
(§1) Solid phase binding assays-Purified, refolded CR protein (1 μg) was bound to Nunc Maxisorp™ 96-well plates in TBS pH 8 supplemented with 5 mM CaCl₂ (TBSC) overnight at 4° C. Wells were washed with TBSC and then blocked with TBSC containing 2% bovine serum albumin (BSA). […] Control wells contained no added ligand. As an additional control, to determine whether the absence of calcium affected binding, 10 mM EGTA was included in the incubation medium for some samples. […] Excess primary antibody was removed and wells washed before incubation with the secondary antibody, HRP-conjugated goat anti rabbit IgG (Bio-Rad). After washing, TMB substrate solutions (Bio-Rad) were added to detect HRP. Color development was stopped with 1N HCl. Absorption at 450 nm was measured with a microplate spectrophotometer (Molecular Devices). Data were plotted and Kd values derived by non-linear regression with the assumption of single-site binding (GraphPad Prism).
(§2) To test this idea, mutant LRP2 CR89 were prepared in which the native, non-canonical residues at these positions were sequentially substituted with the non-native, canonical residues. As defined above, the A, C, A′, C′ string for LRP2 CR89 is YVWR. Mutants included LRP2 CR89 Y1042W (WVWR), LRP2 CR89 V1047D (YDWR), LRP2 CR89 R1088D (YVWD), LRP2 CR89 V1047D R1088D (YDWD), LRP2 CR89 Y1042W V1047D R1088D (WDWD), LRP2 CR89 Y1042W V1047D (WDWR), LRP2 CR89 Y1042W R1088D (WVWD).

Assay [5] addresses T1, LRP1 CR3-5. The assay can be described thus: solid-phase assay on coated CR protein, single-site non-linear fit. On the procedure: Data were plotted and fitted by non-linear regression with the assumption of a single binding site (GraphPad Prism). Kd values with standard deviations were derived from the regression analysis.
as §1

The target in assay [6] is T5, LRP2 CR2728 (human, UniProt P98164 3552-3631).
T5 construct: domain: CR2728; Its cloning is not described in the methods; not shown: N-terminal hexahistidine and S-peptide tags of pET30(+)a
T5 sequence (looked up): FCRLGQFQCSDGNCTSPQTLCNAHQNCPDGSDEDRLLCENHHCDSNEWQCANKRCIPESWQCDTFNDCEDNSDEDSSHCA
Put plainly: solid-phase assay on coated CR protein, each ligand at 80 nM, blank-corrected absorbance. On the procedure:
(§3) Samples were tested twice, in duplicate, and values combined. Means and standard deviations were then calculated. Blank values obtained from wells incubated in the absence of ligand were used to correct absorbance data.
as §1

The target in assay [7] is T6, LRP2 CR3031 (human, UniProt P98164 3677-3755).
T6 construct: domain: CR3031; Its cloning is not described in the methods; not shown: N-terminal hexahistidine and S-peptide tags of pET30(+)a
T6 sequence (P98164 3677-3755): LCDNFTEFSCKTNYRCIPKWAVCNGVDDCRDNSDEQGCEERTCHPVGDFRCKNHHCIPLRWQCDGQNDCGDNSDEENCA
The description is as above. As for the experimental part:
as §3, §1

The target of assay [8] is T7, MAT CR12 (human, UniProt Q9Y5Y6 452-524).
T7 construct: also called ST14 CR12; matriptase CR12
T7 sequence: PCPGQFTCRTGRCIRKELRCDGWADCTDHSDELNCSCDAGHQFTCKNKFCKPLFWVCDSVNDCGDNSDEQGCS
The assay is described as above. On the procedure: as §3, §1

Assay [9] deals with T1, LRP1 CR3-5. Put plainly: solid-phase assay; OD at the highest ligand concentration as percent of the highest OD of all ligands. As for the experimental part: as §1
For assay [10], the target named is T2, LRP2 CR89. Described as above. As for the experimental part:
as §1

Assay [11] deals with T2, LRP2 CR89. The description is as above. As for the experimental part: as §1, §2
The source holds these as a separate data set.

The target in assay [12] is T8, LRP2 CR89 V1047D (human, UniProt P98164 1022-1105).
T8 construct: also called YDWR
T8 sequence: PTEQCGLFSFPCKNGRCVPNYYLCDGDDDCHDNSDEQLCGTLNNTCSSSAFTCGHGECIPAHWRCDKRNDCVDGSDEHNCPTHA
The assay is described as above. On the procedure: as §1, §2

In assay [13] the target is T4, LRP2 CR89 R1088D. The assay is described as above. As for the experimental part: as §1, §2
Assay [14] addresses T9, LRP2 CR89 V1047D R1088D (human, UniProt P98164 1022-1105).
T9 construct: also called YDWD
T9 sequence: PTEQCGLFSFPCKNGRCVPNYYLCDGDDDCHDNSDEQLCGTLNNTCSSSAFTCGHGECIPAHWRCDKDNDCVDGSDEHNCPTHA
Described as above. As for the experimental part:
as §1, §2

Assay [15] has as its target T10, LRP2 CR89 Y1042W V1047D R1088D (human, UniProt P98164 1022-1105).
T10 construct: also called WDWD
T10 chain: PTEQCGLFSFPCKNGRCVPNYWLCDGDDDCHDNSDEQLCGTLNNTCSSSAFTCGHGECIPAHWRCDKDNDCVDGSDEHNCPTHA
The assay is described as above. As for the experimental part:
as §1, §2

In assay [16] the target is T11, LRP2 CR89 Y1042W V1047D (human, UniProt P98164 1022-1105).
T11 construct: also called WDWR
T11 chain: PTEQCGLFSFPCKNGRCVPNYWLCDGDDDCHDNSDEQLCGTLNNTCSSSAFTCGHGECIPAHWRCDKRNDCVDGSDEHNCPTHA
The assay is described as above. On the procedure: as §1, §2

The target of assay [17] is T12, LRP2 CR89 Y1042W R1088D (human, UniProt P98164 1022-1105).
T12 construct: also called WVWD
T12 chain: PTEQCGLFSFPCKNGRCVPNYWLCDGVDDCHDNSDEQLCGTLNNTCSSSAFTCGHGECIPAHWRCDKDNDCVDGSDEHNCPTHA
The assay is described as above. On the procedure: as §1, §2

The target in assay [18] is T1, LRP1 CR3-5. The assay can be described thus: apparent Kd of the variant for the CR pair used in selection; no unit printed in Table 4, nM per Table 2 and paragraph 292.

T1 sequence (Q07954 852-973): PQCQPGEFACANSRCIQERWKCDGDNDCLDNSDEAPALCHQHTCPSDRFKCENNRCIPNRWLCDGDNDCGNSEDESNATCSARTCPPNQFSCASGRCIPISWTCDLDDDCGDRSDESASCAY
T2 sequence (P98164 1025-1102): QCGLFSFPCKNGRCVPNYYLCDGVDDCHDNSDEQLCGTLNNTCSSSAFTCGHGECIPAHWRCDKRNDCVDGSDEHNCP

B1: RAP d3 (wild-type domain 3 of human RAP, amino acids 201-319 of mature RAP) (ligand)
chain: LDRLRRVSHQGYSTEAEFEEPRVIDLWDLEQSANLTDKELEAFREELKHFEAKIEKHNHYQKQLEIAHEKLRHAESVGDGERVSRSREKHALLEGRTKELGYTVKKHLQDLSGRISRAR
notes: Expressed in E. coli from pET30(+)a, Ni-NTA purified; also called wild-type RAP d3; recombinant RAP d3; not shown: N-terminal hexahistidine and S-peptide tags of pET30(+)a
As for B1, the Kd was 11 nM in assay [1]; greater than 300 nM in assay [2]; greater than 300 nM in assay [3]; 16 nM in assay [5]; 16 nM in assay [18]. Further, the binding result is given as “no binding (tested: 100 nM)” in assay [4], “no binding (tested: 80 nM)” in [6], “no binding (tested: 80 nM)” in assay [7] and “no binding (tested: 80 nM)” in [8]. In addition, the results for the “% max” value in assay [9] and in assay [10] were 76% and 5%, respectively. Further, the “% max bind” value turned out to be 7% in assay [11]; 6% in assay [12]; 7% in assay [13]; 6% in [14]; 15% in [15]; 11% in assay [16]. Further, the “% max bind” value in assay [17] is 16%.
